In US20260125454A1:
Read-outs that look alike come from different tables or passages of the source. One block for each binder: values may come before it.

Tests used:
CGRP antigen [1] = experiment: cell-based or functional assay
CGRP antigen [2] = experiment: cell-based or functional assay; remark: listed apart in the source
CGRP antigen [3] = experiment: cell-based or functional assay; remark: listed apart in the source
[4] = molecular target: synthetic human α-CGRP polypeptide (SEQ ID NO: 97)-NH2 (human); experiment: BLI (Octet), antibody on AHC2, 50 nM CGRP; association pH 5.5, dissociation pH 5.5
[5] = molecular target: synthetic human α-CGRP polypeptide (SEQ ID NO: 97)-NH2 (human); experiment: BLI (Octet), antibody on AHC2, 50 nM CGRP; association pH 7.4, dissociation pH 5.5
[6] = molecular target: synthetic human α-CGRP polypeptide (SEQ ID NO: 97)-NH2 (human); experiment: BLI (Octet), antibody on AHC2, 50 nM CGRP; association pH 7.4, dissociation pH 7.4
Biotin-huCGRPaSA (human) = experiment: ELISA, supernatant; relative to chimeric C245
Chain of Biotin-huCGRPaSA (human) (peptide, as listed by the source): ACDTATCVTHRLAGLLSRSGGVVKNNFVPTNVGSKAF

Chain of synthetic human α-CGRP polypeptide (SEQ ID NO: 97)-NH2 (human) (peptide, as listed by the source): as above

- IC50 (CGRP antigen [1]): 0.0613 µg/mL
- IC50 (CGRP antigen [2]): 0.0847 µg/mL
- Relative binding activity (%) vs Ref(Teva) (CGRP antigen [2]): 100%
- IC50 (CGRP antigen [3]): 0.0563 µg/mL
B1: fremanezumab from Teva (antibody, INN chains, looked up, V domains shown)
VH: EVQLVESGGGLVQPGGSLRLSCAASGFTFSNYWISWVRQAPGKGLEWVAEIRSESDASATHYAEAVKGRFTISRDNAKNSLYLQMNSLRAEDTAVYYCLAYFDYGLAIQNYWGQGTLVTVSS
VL: EIVLTQSPATLSLSPGERATLSCKASKRVTTYVSWYQQKPGQAPRLLIYGASNRYLGIPARFSGSGSGTDFTLTISSLEPEDFAVYYCSQSYNYPYTFGQGTKLEIK

- Binding signal (nm) [4]: 0.08 nm
- koff [4]: 5.1e-05 s⁻¹
- Binding signal (nm) [5]: 0.1 nm
- koff [5]: < 1e-05 s⁻¹
- Binding signal (nm) [6]: 0.12 nm
- koff [6]: < 1e-05 s⁻¹
B2: Fremanezumab Analogue (antibody, INN chains, looked up, V domains shown)
VH: B1 VH
VL: B1 VL
modifications: in-house analogue

- Binding signal (nm) [4]: 0.11 nm
- koff [4]: 0.000251 s⁻¹
- Binding signal (nm) [5]: 0.12 nm
- koff [5]: 0.00871 s⁻¹
- Binding signal (nm) [6]: 0.14 nm
- koff [6]: 8.36e-05 s⁻¹
B3: Galcanezumab Analogue (antibody, INN chains, looked up, V domains shown)
VH: QVQLVQSGAEVKKPGSSVKVSCKASGYTFGNYWMQWVRQAPGQGLEWMGAIYEGTGKTVYIQKFADRVTITADKSTSTAYMELSSLRSEDTAVYYCARLSDYVSGFGYWGQGTTVTVSS
VL: DIQMTQSPSSLSASVGDRVTITCRASKDISKYLNWYQQKPGKAPKLLIYYTSGYHSGVPSRFSGSGSGTDFTLTISSLQPEDFATYYCQQGDALPPTFGGGTKVEIK
modifications: in-house analogue

- Relative binding activity, % (Biotin-huCGRPaSA (human)): 5%
B4: hu34 (antibody, V domains shown)
VH: QVQLVQSGAEVKKPGASVKVSCKASGYTFIDFNMHWVRQAPGQRLEWMGYIYPYNGDVVYNQNFTNRVTLTVDTSSSTAYMELSSLRSEDTAVYYCAREGLGGYWGQGTLVTVSS
VL: DIVLTQSPDSLAVSLGERATINCKASQNIDFDGYAYMNWYQHKPGQPPKVLIYSVFNLESGVPDRFSGSGSGTDFTLTISSLQAEDVAVYYCQQSHEVPYTFGQGTKLEIK
